Test results as given in PMC9678776, “A higher plant FAD synthetase is fused to an inactivated FAD pyrophosphatase” (The Journal of Biological Chemistry, 2022).

Tests used:
AtFADS1^trunc = molecular target: T1, AtFADS1^trunc (Arabidopsis thaliana, UniProt Q9LZE4); test: HPLC-fluorescence FAD synthetase assay, substrate-inhibition fit; assay type: biochemical; conditions: substrate inhibition by FMN; ATP, zinc acetate 2 mM above ATP, Hepes-NaOH pH 7.0, 30 °C
T1 construct: gene FADS1; N-terminal FAD synthetase domain only, starting at native Met1
T1 sequence (Q9LZE4 1-254 limits assumed): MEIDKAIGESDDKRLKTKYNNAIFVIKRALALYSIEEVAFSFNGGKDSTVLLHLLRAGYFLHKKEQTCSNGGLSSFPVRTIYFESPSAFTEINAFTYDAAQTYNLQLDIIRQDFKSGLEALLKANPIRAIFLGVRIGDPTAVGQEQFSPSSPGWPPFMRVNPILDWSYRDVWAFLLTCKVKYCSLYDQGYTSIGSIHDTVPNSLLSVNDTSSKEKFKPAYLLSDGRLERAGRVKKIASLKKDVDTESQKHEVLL
Excerpt: HPLC-fluorescence FAD synthetase assay, substrate-inhibition fit on AtFADS1^trunc

AtFADS1 = molecular target: T2, AtFADS1 (Arabidopsis thaliana, UniProt Q9LZE4); test: as above; assay type: biochemical; conditions: substrate inhibition by FMN; 10 mM ATP, zinc acetate 2 mM above ATP, Hepes-NaOH pH 7.0, 30 °C
T2 construct: gene FADS1; N-terminus from primer MEIDKA
T2 sequence (Q9LZE4 1-497): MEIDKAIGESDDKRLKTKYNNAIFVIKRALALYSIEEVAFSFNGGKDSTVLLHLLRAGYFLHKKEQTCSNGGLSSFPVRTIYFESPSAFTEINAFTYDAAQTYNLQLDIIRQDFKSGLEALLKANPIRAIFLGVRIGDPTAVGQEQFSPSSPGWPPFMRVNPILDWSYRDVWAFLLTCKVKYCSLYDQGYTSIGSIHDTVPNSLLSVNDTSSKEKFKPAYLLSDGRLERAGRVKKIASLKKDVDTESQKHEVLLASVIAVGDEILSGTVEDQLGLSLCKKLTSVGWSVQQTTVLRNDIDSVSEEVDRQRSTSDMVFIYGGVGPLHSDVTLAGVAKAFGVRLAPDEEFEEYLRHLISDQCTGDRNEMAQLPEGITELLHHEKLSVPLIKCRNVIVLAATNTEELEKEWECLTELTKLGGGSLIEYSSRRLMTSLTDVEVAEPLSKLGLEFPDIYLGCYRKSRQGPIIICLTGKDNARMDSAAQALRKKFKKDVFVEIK
Excerpt: HPLC-fluorescence FAD synthetase assay, substrate-inhibition fit on AtFADS1

CrFADS1 = molecular target: T3, CrFADS1 (Chlamydomonas reinhardtii, UniProt A0A2K3D179); test: as above; assay type: biochemical; conditions: substrate inhibition by FMN; 10 mM ATP, zinc acetate 2 mM above ATP, Hepes-NaOH pH 7.0, 30 °C
T3 construct: gene FADS1; bifunctional fusion
T3 sequence (A0A2K3D179 1-582): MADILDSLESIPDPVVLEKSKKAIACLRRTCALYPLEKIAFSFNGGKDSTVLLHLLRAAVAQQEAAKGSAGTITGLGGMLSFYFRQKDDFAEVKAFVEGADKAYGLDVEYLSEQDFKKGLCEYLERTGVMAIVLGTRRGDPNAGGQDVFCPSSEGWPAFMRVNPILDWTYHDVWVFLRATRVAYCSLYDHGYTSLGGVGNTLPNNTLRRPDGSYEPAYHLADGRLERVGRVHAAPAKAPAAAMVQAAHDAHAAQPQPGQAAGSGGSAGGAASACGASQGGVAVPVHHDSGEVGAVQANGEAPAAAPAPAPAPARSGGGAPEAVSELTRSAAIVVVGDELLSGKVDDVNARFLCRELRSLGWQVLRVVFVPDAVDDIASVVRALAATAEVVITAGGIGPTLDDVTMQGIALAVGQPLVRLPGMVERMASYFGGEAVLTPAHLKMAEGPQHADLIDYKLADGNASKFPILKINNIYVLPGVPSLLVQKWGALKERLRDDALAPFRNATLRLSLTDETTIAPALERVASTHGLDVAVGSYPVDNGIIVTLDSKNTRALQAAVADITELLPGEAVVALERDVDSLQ
Excerpt: (§1) HPLC-fluorescence FAD synthetase assay, substrate-inhibition fit on CrFADS1

[1] = substrate: Nc1ncnc2c1ncn2[C@@H]1O[C@H](COP(=O)(O)OP(=O)(O)OP(=O)(O)O)[C@@H](O)[C@H]1O; test: HPLC-fluorescence FAD synthetase assay, Michaelis-Menten; assay type: biochemical, Arabidopsis thaliana; conditions: FAD synthetase activity, 15 μM FMN, zinc acetate 2 mM above ATP, Hepes-NaOH pH 7.0, 30 °C
Excerpt: HPLC-fluorescence FAD synthetase assay, Michaelis-Menten on […]1

[2] = substrate: Cc1cc2nc3c(=O)[nH]c(=O)nc-3n(C[C@H](O)[C@H](O)[C@H](O)COP(=O)(O)OP(=O)(O)OC[C@H]3O[C@@H](n4cnc5c(N)ncnc54)[C@H](O)[C@@H]3O)c2cc1C; test: HPLC-fluorescence FAD pyrophosphatase assay, Michaelis-Menten; assay type: biochemical, Chlamydomonas reinhardtii; conditions: FAD pyrophosphatase activity, 2 mM CoCl2, 200 mM KCl, Hepes-NaOH pH 7.0, 30 °C
Excerpt: HPLC-fluorescence FAD pyrophosphatase assay, Michaelis-Menten on […]1

[3] = substrate: Cc1cc2nc3c(=O)[nH]c(=O)nc-3n(C[C@H](O)[C@H](O)[C@H](O)COP(=O)(O)O)c2cc1C; test: HPLC-fluorescence FAD synthetase assay, substrate-inhibition fit; assay type: biochemical, Chlamydomonas reinhardtii; conditions: FAD synthetase activity, 10 mM ATP, zinc acetate 2 mM above ATP, Hepes-NaOH pH 7.0, 30 °C
Excerpt: as §1

For `Cc1cc2nc3c(=O)[nH]c(=O)nc-3n(C[C@H](O)[C@H](O)[C@H](O)COP(=O)(O)O)c2cc1C` [FMN], the “Ki” value (AtFADS1^trunc) was 32.7 ± 18.2 µM, the “Ki” value (AtFADS1) was 190 ± 36 µM and the “Ki” value (CrFADS1) was 336 ± 66 µM.

B1: AtFADS1 (Arabidopsis thaliana) (protein)
chain: MEIDKAIGESDDKRLKTKYNNAIFVIKRALALYSIEEVAFSFNGGKDSTVLLHLLRAGYFLHKKEQTCSNGGLSSFPVRTIYFESPSAFTEINAFTYDAAQTYNLQLDIIRQDFKSGLEALLKANPIRAIFLGVRIGDPTAVGQEQFSPSSPGWPPFMRVNPILDWSYRDVWAFLLTCKVKYCSLYDQGYTSIGSIHDTVPNSLLSVNDTSSKEKFKPAYLLSDGRLERAGRVKKIASLKKDVDTESQKHEVLLASVIAVGDEILSGTVEDQLGLSLCKKLTSVGWSVQQTTVLRNDIDSVSEEVDRQRSTSDMVFIYGGVGPLHSDVTLAGVAKAFGVRLAPDEEFEEYLRHLISDQCTGDRNEMAQLPEGITELLHHEKLSVPLIKCRNVIVLAATNTEELEKEWECLTELTKLGGGSLIEYSSRRLMTSLTDVEVAEPLSKLGLEFPDIYLGCYRKSRQGPIIICLTGKDNARMDSAAQALRKKFKKDVFVEIK
notes: N-terminus from primer MEIDKA
Molecule B1 has a Km [1] of 665 ± 11 µM, a kcat [1] of 0.287 ± 0.011 s⁻¹ and a kcat/Km [1] of 432 ± 18 M⁻¹ s⁻¹.

B2: CrFADS1 (Chlamydomonas reinhardtii) (protein)
chain: MADILDSLESIPDPVVLEKSKKAIACLRRTCALYPLEKIAFSFNGGKDSTVLLHLLRAAVAQQEAAKGSAGTITGLGGMLSFYFRQKDDFAEVKAFVEGADKAYGLDVEYLSEQDFKKGLCEYLERTGVMAIVLGTRRGDPNAGGQDVFCPSSEGWPAFMRVNPILDWTYHDVWVFLRATRVAYCSLYDHGYTSLGGVGNTLPNNTLRRPDGSYEPAYHLADGRLERVGRVHAAPAKAPAAAMVQAAHDAHAAQPQPGQAAGSGGSAGGAASACGASQGGVAVPVHHDSGEVGAVQANGEAPAAAPAPAPAPARSGGGAPEAVSELTRSAAIVVVGDELLSGKVDDVNARFLCRELRSLGWQVLRVVFVPDAVDDIASVVRALAATAEVVITAGGIGPTLDDVTMQGIALAVGQPLVRLPGMVERMASYFGGEAVLTPAHLKMAEGPQHADLIDYKLADGNASKFPILKINNIYVLPGVPSLLVQKWGALKERLRDDALAPFRNATLRLSLTDETTIAPALERVASTHGLDVAVGSYPVDNGIIVTLDSKNTRALQAAVADITELLPGEAVVALERDVDSLQ
notes: bifunctional fusion
With B2 the Km [2] was 4.88 ± 0.56 µM, the kcat [2] was 0.395 ± 0.011 s⁻¹ and the kcat/Km [2] was 81000 ± 9600 M⁻¹ s⁻¹. It also gave a Km [3] of 0.54 ± 0.09 µM, a kcat [3] of 0.103 ± 0.004 s⁻¹ and a kcat/Km [3] of 191000 ± 33000 M⁻¹ s⁻¹.
